# Assay results as given in patent US20120207759A1 (WASHINGTON UNIVERSITY, published 2012).
# T1: human HVEM expressed on transduced BJAB cells (full length) (human, UniProt Q92956 39-283)
# T1 construct: also called hHVEM; hHVEM-IRES-GFP
# T1 sequence: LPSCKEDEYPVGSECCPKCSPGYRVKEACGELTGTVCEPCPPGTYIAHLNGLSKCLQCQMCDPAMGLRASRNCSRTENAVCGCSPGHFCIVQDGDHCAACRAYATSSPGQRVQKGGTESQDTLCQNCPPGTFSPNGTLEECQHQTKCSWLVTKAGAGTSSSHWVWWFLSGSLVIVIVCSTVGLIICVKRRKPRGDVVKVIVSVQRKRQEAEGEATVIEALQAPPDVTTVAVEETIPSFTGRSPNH
# T2: B7x extracellular domain expressed on NIH 3T3 cells (mouse, UniProt Q7TSP5 25-257)
# T2 construct: also called B7x-B7h-GFP; not shown: B7h transmembrane and cytoplasmic domains fused to GFP
# T2 sequence: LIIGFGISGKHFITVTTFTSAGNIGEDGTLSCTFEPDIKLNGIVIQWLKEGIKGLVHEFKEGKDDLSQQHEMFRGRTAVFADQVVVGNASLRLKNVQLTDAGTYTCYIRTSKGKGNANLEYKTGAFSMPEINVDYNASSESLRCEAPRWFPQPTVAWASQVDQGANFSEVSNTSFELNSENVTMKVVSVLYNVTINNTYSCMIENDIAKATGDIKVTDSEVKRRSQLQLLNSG
# T3: SHIP (UniProt Q92835 1-1189, limits assumed)
# T3 sequence (looked up): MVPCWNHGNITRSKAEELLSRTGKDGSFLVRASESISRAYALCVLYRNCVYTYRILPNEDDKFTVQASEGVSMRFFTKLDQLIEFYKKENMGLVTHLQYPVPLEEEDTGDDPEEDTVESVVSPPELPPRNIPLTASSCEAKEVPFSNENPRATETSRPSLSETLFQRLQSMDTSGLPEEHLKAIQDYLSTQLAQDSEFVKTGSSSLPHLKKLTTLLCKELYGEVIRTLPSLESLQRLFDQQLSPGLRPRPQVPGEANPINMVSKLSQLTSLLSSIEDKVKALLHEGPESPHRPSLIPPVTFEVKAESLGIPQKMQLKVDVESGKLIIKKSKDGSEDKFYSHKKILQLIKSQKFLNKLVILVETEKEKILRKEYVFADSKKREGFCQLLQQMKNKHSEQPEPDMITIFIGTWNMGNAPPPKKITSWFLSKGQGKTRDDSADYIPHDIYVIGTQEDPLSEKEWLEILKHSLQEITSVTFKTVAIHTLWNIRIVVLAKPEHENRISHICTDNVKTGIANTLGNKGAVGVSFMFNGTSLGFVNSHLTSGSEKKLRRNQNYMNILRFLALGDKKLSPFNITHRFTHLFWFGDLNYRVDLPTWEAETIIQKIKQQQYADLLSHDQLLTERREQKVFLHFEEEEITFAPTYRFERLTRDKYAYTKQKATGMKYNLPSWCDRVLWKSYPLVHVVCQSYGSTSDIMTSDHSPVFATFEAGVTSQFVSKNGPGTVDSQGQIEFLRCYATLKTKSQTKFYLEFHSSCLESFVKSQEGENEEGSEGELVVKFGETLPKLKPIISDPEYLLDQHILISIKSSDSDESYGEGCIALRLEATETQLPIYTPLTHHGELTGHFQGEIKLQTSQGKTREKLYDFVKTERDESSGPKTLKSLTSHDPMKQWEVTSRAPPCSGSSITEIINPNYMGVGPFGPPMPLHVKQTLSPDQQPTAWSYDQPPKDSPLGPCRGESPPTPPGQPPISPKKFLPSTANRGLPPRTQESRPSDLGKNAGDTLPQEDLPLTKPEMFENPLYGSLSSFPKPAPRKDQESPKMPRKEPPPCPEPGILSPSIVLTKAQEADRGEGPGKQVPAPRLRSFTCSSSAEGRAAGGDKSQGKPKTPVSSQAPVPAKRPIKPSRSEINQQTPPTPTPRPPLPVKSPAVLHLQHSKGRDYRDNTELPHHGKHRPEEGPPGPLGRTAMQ
# T4: mouse 4-1BB expressed on transduced BJAB cells (mouse, UniProt P20334 24-256)
# T4 construct: whole, on cells; also called m4-1BB; 4-1 BB-IRES-GFP
# T4 sequence (looked up): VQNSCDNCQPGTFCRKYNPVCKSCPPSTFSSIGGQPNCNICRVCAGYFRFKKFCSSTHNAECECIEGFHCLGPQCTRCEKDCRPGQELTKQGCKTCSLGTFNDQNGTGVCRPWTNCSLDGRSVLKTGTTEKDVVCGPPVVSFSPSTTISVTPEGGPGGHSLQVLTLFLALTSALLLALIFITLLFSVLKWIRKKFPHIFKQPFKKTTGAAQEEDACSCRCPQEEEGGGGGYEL
# T5: C57BL/6 allele of mouse BTLA expressed on transfected cells as a GFP fusion protein (mouse, UniProt Q7TSA3 30-306)
# T5 construct: also called BJAB.B6 BTLA-GFP; C57BL/6 BTLA; not shown: GFP without its start codon
# T5 sequence: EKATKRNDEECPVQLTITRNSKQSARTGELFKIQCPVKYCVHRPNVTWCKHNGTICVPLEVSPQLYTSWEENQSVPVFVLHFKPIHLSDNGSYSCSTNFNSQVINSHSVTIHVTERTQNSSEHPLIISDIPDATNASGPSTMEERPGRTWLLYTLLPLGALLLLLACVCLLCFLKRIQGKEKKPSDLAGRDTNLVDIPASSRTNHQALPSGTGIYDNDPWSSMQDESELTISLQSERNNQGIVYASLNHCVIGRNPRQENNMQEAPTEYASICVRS
# B1: human BTLA-Fc fusion protein (Fc fusion)
# chain: KESCDVQLYIKRQSEHSILAGDPFELECPVKYCANRPHVTWCKLNGTTCVKLEDRQTSWKEEKNISFFILHFEPMLPNDNGSYRCSANFQSNLIESHSTTLYVTDVKGASERPSKDEVA
# notes: Used as 1 ml of supernatant for staining; also called hBTLA-Fc; not shown: Fc-αTP part of the CD47-Fc-αTP-ires-GFP-RV vector (detected with anti-human IgG)
# B2: mouse BTLA-Fc fusion protein (Fc fusion)
# chain: EKATKRNDEECPVQLTITRNSKQSARTGELFKIQCPVKYCVHRPNVTWCKHNGTICVPLEVSPQLYTSWEENQSVPVFVLHFKPIHLSDNGSYSCSTNFNSQVINSHSVTIHVTERTQNSSEHPLIISDIPDATNAS
# notes: also called mBTLA-Fc; not shown: Fc-αTP part of the CD47-Fc-αTP-ires-GFP-RV vector (detected with anti-human IgG)
# B3: mouse BTLA tetramer (allele not stated at these places) (other, UniProt Q7TSA3 30-166, looked up)
# chain: EKATKRNDEECPVQLTITRNSKQSARTGELFKIQCPVKYCVHRPNVTWCKHNGTICVPLEVSPQLYTSWEENQSVPVFVLHFKPIHLSDNGSYSCSTNFNSQVINSHSVTIHVRERTQNSSEHPLITVSDIPDATNA
# modifications: biotinylated; bound to streptavidin-phycoerythrin
# notes: domain: BTLA Ig domain; also called BTLA tetramers; tetramers of mouse BTLA
# B4: Myc-tagged full length human BTLA, tyrosine-phosphorylated (pervanadate) (receptor)
# chain: KESCDVQLYIKRQSEHSILAGDPFELECPVKYCANRPHVTWCKLNGTTCVKLEDRQTSWKEEKNISFFILHFEPMLPNDNGSYRCSANFQSNLIESHSTTLYVTDVKGASERPSKDEVASRPWLLYSLLPLGGLPLLITTWFCLFCCLRRHQGKQNELSDTAGREINLVDAHLKSEQTEASTRQNSQVLLSEAGIYDNDPDLCFRMQEGSEVCSNPCLEENKPGIVYASLNHSVIGLNSRLARNVKEAPTEYASICVRS
# modifications: tyrosine-phosphorylated after pervanadate treatment (Y226, Y257, Y282 are the tyrosines studied)
# notes: Expressed in Jurkat T cells; also called myc-hBTLA; Myc3-hBTLA; not shown: triple Myc tag inserted downstream of the signal peptide
# B5: BALB/c BTLA tetramer-phycoerythrin (other)
# chain: DEECEVQLNIKRNSKHSAWTGELFKIECPVKYCVHRPNVTWCKHNGTIWVPLEVGPQLYTSWEENRSVPVFVLHFKPIHLSDNGSYSCSTWFWSQVINSHSVTIHVR
# modifications: biotinylated in vitro with BirA ligase; bound to streptavidin-phycoerythrin
# notes: also called BALB-BTLA pET28 product; not shown: biotinylation tag of the MLL1-pET28 vector
# B6: mB7x-Fc fusion protein (Fc fusion)
# chain: T2 sequence
# notes: not shown: Fc-αTP part of the CD47-Fc-αTP-ires-GFP-RV vector (detected with anti-human IgG)
# B7: C57BL/6 BTLA tetramer-phycoerythrin (other)
# chain: EKATKRNDEECPVQLTITRNSKQSARTGELFKIQCPVKYCVHRPNVTWCKHNGTICVPLEVSPQLYTSWEENQSVPVFVLHFKPIHLSDNGSYSCSTNFNSQVINSHSVTIHVTERTQNSSEHPLIISDIPDATNASGGGLNDIFEAQKIEWHE
# modifications: biotinylated in vitro with BirA ligase on the C-terminal BirA sequence; bound to streptavidin-phycoerythrin
# notes: also called B6-BTLA pET28 product
# Tests used:
# [1] = target: T1, human HVEM expressed on transduced BJAB …; experiment: flow cytometry on transduced BJAB cells
# Excerpt: (§1) FIG. 36 HVEM is a ligand for BTLA. (A) NIH 3T3 cells and BJAB cells were transduced with splenocyte cDNA libraries and were directly stained with anti-Thy1.1-FITC and the C57BL/6 BTLA tetramer-phycoerythrin (Before sorting). These cells were sorted for the highest 0.5% population of BTLA tetramer staining with BTLA-phycoerythrin tetramer and Thy1.1-FITC and were subjected to an additional three rounds of similar sequential purification. After the fourth round of sorting, cell populations were expanded and cells were stained (After sorting). Numbers in each quadrant indicate the percentage of live cells in the indicated gate. (B) BJAB cells were transduced with the retroviruses mHVEM-IRES-GFP (mHVEM; mouse), hHVEM-IRES-GFP (hHVEM; human), 4-1 BB-IRES-GFP (4-1 BB; mouse) and LTβR-1RES-GFP (LTβR; mouse) and were stained with C57BL/6 BTLA tetramer-phycoerythrin or BALB/c BTLA tetramer-phycoerythrin. Numbers in dot plots indicate the percentage of BTLA tetramer staining in the GFP-positive population. (C, D) HVEM activates BTLA phosphorylation and SHP-2 association. EL-4 cells (EL4), BJAB cells expressing GFP (BJAB-GFP) or BJAB cells expressing mouse HVEM (BJAB-mHVEM) were added (+) or not added (−) for 4 min at 37° C. at a density of 25×10⁶ cells/ml. Cells were left untreated (−) or were treated (+) with pervanadate (VO₄) for 4 min. Total cell lysates were prepared and were immunoprecipitated with 6A6 (anti-mouse BTLA), and immunoblots were probed for SHP-2 (C) or for phosphotyrosine (D) in immunoprecipitates (IP) or in lysates without immunoprecipitation. Immunoblots using the isotype control for immunoprecipitation were negative for SHP-2 association (data not shown). Data in C and d are representative of four independent experiments. (E) BJAB cells were transduced with retrovirus mHVEM-ires-GFP or hHVEM-ires-GFP and were stained with human IgG1 isotype control (hIgG1), mB7x-Fc, mBTLA-Fc or hBTLA-Fc followed by anti-human IgG-phycoerythrin. Numbers in dot plots show the percentage of fusion protein staining in the GFP-positive population.
# [2] = target: T6, PD-L1 expressed on NIH 3T3 cells (UniProt Q9EP73 19-265, limits assumed); experiment: flow cytometry on NIH 3T3 transfectants
# T6 construct: domain: extracellular domains; also called PD-L1-GFP
# T6 sequence (Q9EP73 19-265 limits assumed): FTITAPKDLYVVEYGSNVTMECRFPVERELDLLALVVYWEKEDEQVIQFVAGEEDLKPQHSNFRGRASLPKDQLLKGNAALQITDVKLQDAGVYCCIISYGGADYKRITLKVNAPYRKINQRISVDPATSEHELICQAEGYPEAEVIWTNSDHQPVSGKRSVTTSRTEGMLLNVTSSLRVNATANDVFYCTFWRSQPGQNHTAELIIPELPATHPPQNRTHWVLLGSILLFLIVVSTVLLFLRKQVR
# Excerpt: (§2) To test for direct interactions between BTLA and B7x, we made NI H 3T3 cell lines stably expressing the extracellular domains of B7x, BTLA, and programmed death 1 (PD-1) and its ligand (PD-L1), and stained the cells with PD-1 and BTLA tetramers and with PD-L1 and B7x Fc fusion proteins.
# [3] = target: T2, B7x extracellular domain expressed on …; experiment: flow cytometry on NIH 3T3 transfectants
# Excerpt: as §2
# SHIP = target: T3, SHIP; experiment: co-immunoprecipitation
# Grb2 = Grb2 (UniProt P62993 1-217); experiment: co-immunoprecipitation
# Sequence of Grb2 (P62993 whole entry): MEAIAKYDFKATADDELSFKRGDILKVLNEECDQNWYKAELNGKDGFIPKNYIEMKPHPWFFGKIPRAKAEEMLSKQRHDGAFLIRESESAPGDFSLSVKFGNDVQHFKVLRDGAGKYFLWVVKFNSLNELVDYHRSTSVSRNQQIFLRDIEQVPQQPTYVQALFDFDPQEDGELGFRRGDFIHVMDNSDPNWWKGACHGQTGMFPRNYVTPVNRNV
# SHP-1 = SHP-1 (UniProt P29350 1-595); experiment: co-immunoprecipitation
# Sequence of SHP-1 (P29350 whole entry): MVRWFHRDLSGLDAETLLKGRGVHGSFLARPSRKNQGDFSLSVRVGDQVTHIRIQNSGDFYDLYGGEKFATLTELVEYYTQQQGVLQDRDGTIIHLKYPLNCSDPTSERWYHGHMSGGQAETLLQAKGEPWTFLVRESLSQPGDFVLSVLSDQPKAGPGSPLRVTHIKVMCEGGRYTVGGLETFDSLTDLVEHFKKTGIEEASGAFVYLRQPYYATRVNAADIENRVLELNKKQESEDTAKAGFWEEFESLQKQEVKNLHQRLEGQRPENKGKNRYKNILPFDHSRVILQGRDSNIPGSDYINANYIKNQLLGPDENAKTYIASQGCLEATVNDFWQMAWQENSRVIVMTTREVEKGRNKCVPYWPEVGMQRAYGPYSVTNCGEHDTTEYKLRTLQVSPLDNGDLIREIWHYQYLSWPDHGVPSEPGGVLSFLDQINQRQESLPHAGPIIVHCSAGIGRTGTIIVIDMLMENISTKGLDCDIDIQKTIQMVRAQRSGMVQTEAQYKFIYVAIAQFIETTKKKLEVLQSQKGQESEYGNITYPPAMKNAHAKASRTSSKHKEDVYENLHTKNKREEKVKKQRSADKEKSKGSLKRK
# [4] = target: T7, mouse LTβR expressed on transduced BJAB cells (mouse, UniProt P50284 31-415); experiment: flow cytometry on transduced BJAB cells
# T7 construct: whole, on cells; also called LTI3R; mLT R
# T7 sequence (P50284 31-415): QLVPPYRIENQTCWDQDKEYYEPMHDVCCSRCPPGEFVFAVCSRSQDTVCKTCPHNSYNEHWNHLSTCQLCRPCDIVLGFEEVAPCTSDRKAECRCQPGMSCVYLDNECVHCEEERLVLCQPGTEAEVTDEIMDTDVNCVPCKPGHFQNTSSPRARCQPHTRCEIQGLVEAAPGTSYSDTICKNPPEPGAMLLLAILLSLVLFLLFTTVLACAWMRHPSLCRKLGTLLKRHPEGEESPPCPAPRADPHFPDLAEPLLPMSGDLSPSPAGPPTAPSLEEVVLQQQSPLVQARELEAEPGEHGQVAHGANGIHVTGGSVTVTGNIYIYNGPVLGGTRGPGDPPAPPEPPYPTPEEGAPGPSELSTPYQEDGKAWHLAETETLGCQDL
# Excerpt: as §1
# [5] = target: T4, mouse 4-1BB expressed on transduced …; experiment: flow cytometry on transduced BJAB cells
# Excerpt: as §1
# [6] = target: T5, C57BL/6 allele of mouse BTLA expressed …; experiment: flow cytometry on NIH 3T3 transfectants
# Excerpt: as §2
binder,measurement,setting,value
B1,binding result,[1],binds
B2,binding result,[1],no binding (tested: 200 ng of purified Fc-fusion protein)
B3,binding result,[1],no binding
same,binding result,[2],no binding
same,binding result,[3],no binding
B4,binding result,SHIP,no binding
same,binding result,Grb2,no binding
same,binding result,SHP-1,no binding
B5,binding result,[1],no binding
same,binding result,[4],no binding
same,binding result,[5],no binding
B6,binding result,[1],no binding (tested: 200 ng of purified Fc-fusion protein)
same,binding result,[6],no binding
B7,binding result,[1],no binding
same,binding result,[4],no binding
same,binding result,[5],no binding
